In the assay the test system is SARS-CoV-2 (WT, D614G). It counts as cell-based.

Residue numbers refer to the chain shown, from its start. “Also recorded” adds a separate entry of the source.

B1: B3-WT: Wild type recombinant SerpinB3 (SCCA-1), 44.5 kDa cross-class inhibitor of cysteine proteases including CatL; SEQ ID No. 5 (protein, listed as Homo sapiens)
chain: MNSLSEANTKFMFDLFQQFRKSKENNIFYSPISITSALGMVLLGAKDNTAQQIKKVLHFDQVTENTTGKAATYHVDRSGNVHHQFQKLLTEFNKSTDAYELKIANKLFGEKTYLFLQEYLDAIKKFYQTSVESVDFANAPEESRKKINSWVESQTNEKIKNLIPEGNIGSNTTLVLVNAIYFKGQWEKKFNKEDTKEEKFWPNKNTYKSIQMMRQYTSFHFASLEDVQAKVLEIPYKGKDLSMIVLLPNEIDGLQKLEEKLTAEKLMEWTSLQNMRETRVDLHLPRFKVEESYDLKDTLRTMGMVDIFNGDADLSGMTGSRGLVLSGVLHKAFVEVTEEGAEAAAATAVVGFGSSPTSTNEEFHCNHPFLFFIRQNKTNSILFYGRFSSP
Turning to B1, the “inhibition of SARS-CoV-2 WT (D614G) infection (in words)” value is listed as “reductions in SARS-CoV-2 infection”. For the same molecule, under “50 µM”, the “inhibition of SARS-CoV-2 replication / infection” value is 50%.

B2: B3-TMP: SerpinB3 variant with RCL residues 350 to 354 (P4 to P1′) replaced by IQFRV to inhibit TMPRSS2; SEQ ID No. 6 (protein)
chain: B1 chain with V350I, G351Q, G353R, S354V
Consider B2, for which the “inhibition of SARS-CoV-2 WT (D614G) infection (in words)” value was “good dose-dependent downregulation of viral replication; also recorded: greater inhibitor for both viral strains than WT-SerpinB3” and the “inhibition of SARS-CoV-2 replication” value is “up to 50%”. For the same molecule, where the note is “50 µM”, the “inhibition of viral replication, full time treatment” value is given as 93% and the “viral inhibition, treatment limited to viral entry” value is reported as “up to 70%”.
